One block for each binder: values may come before it. Bridge positions count the residues as written; N and C are the ends. Square brackets hold non-standard residues; d marks the D form. DBF = dibenzofuran moiety used in place of Pro-Pro
Tests used:
[1] = biological target: T1, CD58 expressed on OVCAR-3 and HFLS-RA cells (human, UniProt P19256 29-250); experiment: cell-based or functional assay
T1 sequence (looked up): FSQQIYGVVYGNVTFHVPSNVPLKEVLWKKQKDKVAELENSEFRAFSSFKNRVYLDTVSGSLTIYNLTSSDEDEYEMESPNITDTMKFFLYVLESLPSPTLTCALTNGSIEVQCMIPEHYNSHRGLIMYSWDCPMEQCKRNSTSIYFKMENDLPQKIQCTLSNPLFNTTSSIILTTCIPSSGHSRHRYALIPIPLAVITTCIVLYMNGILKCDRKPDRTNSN

[2] = biological target: CD58 expressed on sheep red blood cells (SRBC) (sheep); experiment: cell-based or functional assay

IC50, cell adhesion inhibition [1]: 22 nM
B1: SFTI-a1 (peptide)
peptide: cyclo(CKSAPPSCAYDGDD)
modifications: disulfide 1-8
SMILES: C[C@@H]1NC(=O)[C@@H]2CSSC[C@H](NC(=O)[C@H](CC(=O)O)NC(=O)[C@H](CC(=O)O)NC(=O)CNC(=O)[C@H](CC(=O)O)NC(=O)[C@H](Cc3ccc(O)cc3)NC1=O)C(=O)N[C@@H](CCCCN)C(=O)N[C@@H](CO)C(=O)N[C@@H](C)C(=O)N1CCC[C@H]1C(=O)N1CCC[C@H]1C(=O)N[C@@H](CO)C(=O)N2

IC50, inhibition of E-rosette formation [2]: 9.4 nM
Binder: cyclo(SIYD[dP]PDDIK) [Peptide 6]

IC50, cell adhesion (PPI) inhibition [1]: 51 nM
B2: SFTI-a (peptide)
peptide: cyclo(CKASAPPSCYDGDD)
modifications: disulfide 1-9
SMILES: C[C@@H]1NC(=O)[C@H](CCCCN)NC(=O)[C@@H]2CSSC[C@H](NC(=O)[C@H](CO)NC(=O)[C@@H]3CCCN3C(=O)[C@@H]3CCCN3C(=O)[C@H](C)NC(=O)[C@H](CO)NC1=O)C(=O)N[C@@H](Cc1ccc(O)cc1)C(=O)N[C@@H](CC(=O)O)C(=O)NCC(=O)N[C@@H](CC(=O)O)C(=O)N[C@@H](CC(=O)O)C(=O)N2

IC50, inhibition of adhesion between Jurkat and HFLS-RA cells [1]: 3 nM
IC50, inhibition of adhesion between Jurkat and OVCAR-3 cells [1]: 0.61 nM
Binder: cyclo(CKSA[DBF]SCAYDGDD) (disulfide 1-7 (inferred)) [SFTI-DBF]

Reference: US20200347136A1 (published 2020)
